Data reported in article PMC8396234.

Biological target: GHSR1a-RLuc (ghrelin GHSR1a receptor fused to Renilla luciferase) (human) (UniProt Q92847)
Conditions: scale: % decrease of forskolin-induced cAMP levels

Sequence of UniProt Q92847 (Q92847 whole entry, the tested form may be a part): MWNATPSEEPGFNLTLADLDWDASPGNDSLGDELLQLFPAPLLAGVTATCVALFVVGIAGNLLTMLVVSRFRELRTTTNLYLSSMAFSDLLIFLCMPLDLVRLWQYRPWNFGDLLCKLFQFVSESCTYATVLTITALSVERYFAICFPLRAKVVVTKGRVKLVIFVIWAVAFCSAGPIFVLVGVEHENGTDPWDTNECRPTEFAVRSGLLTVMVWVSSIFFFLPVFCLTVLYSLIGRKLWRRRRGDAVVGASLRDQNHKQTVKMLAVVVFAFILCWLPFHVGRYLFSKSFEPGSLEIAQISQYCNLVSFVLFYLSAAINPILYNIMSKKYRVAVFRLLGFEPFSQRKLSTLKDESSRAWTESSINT

Ghrelin (peptide)
forskolin-induced cAMP levels in HEK-293T cells expressing GHSR1a alone, 200 nM ghrelin: 25
